# From patent publication US12545899B2, “Luciferase enzymes for use with thermostable luciferins in bioluminescent assays” (Promega Corporation, priority 2018, dated 2026)
# B1: ATG-2890: SEQ ID NO: 13; I240L+H244W+Y254S+T344A+I396K (protein)
# chain: MADKNILYGPEPFYPLEDGTAGEQMFDALSRYAAIPGCIALTNAHTKENVLYEEFLKLSCRLAESFKKYGLKQNDTIAVCSENSLQFFLPVIASLYLGIIVAPVNDKYIERELIHSLGIVKPRIVFCSKNTFQKVLNVKSKLKSIETIIILDLNEDLGGYQCLNNFISQNSDSNLDVKKFKPYSFNRDDQVASIMFSSGTTGLPKGVMLTHKNIVARFSIAKDPTFGNAINPTSAILTVLPFHWGFGMMTTLGSFTCGFRVVLMHTFEEKLFLQSLQDYKVESTLLVPTLMAFLAKSALVEKYDLSHLKEIASGGAPLSKEIGEMVKKRFKLNFVRQGYGLTEATSAVLITPKGDAKPGSTGKIVPLHAVKVVDPTTGKILGPNEPGELYFKGPMKMKGYYNNEEATKAIIDNDGWLRSGDIAYYDNDGHFYIVDRLKSLIKYKGYQVAPAEIEGILLQHPYIVDAGVTGIPDEAAGELPAAGVVVQTGKYLNEQIVQDYVASQVSTAKWLRGGVKFLDEIPKGSTGKIDRKVLRQMLEKHTNGHHHHHHHH
# B2: ATG-3552: SEQ ID NO: 17; H244W+T344A+I396K+V300G+L305P+S306P (protein)
# chain: MADKNILYGPEPFYPLEDGTAGEQMFDALSRYAAIPGCIALTNAHTKENVLYEEFLKLSCRLAESFKKYGLKQNDTIAVCSENSLQFFLPVIASLYLGIIVAPVNDKYIERELIHSLGIVKPRIVFCSKNTFQKVLNVKSKLKSIETIIILDLNEDLGGYQCLNNFISQNSDSNLDVKKFKPYSFNRDDQVASIMFSSGTTGLPKGVMLTHKNIVARFSIAKDPTFGNAINPTSAILTVIPFHWGFGMMTTLGYFTCGFRVVLMHTFEEKLFLQSLQDYKVESTLLVPTLMAFLAKSALGEKYDFPHLKEIASGGAPLSKEIGEMVKKRFKLNFVRQGYGLTEATSAVLITPKGDAKPGSTGKIVPLHAVKVVDPTTGKILGPNEPGELYFKGPMKMKGYYNNEEATKAIIDNDGWLRSGDIAYYDNDGHFYIVDRLKSLIKYKGYQVAPAEIEGILLQHPYIVDAGVTGIPDEAAGELPAAGVVVQTGKYLNEQIVQDYVASQVSTAKWLRGGVKFLDEIPKGSTGKIDRKVLRQMLEKHTNGHHHHHHHH
# B3: ATG3707: SEQ ID NO: 2; H244W+T344A+I396K+S193A+N228D+L305F+S306P+I109V (protein)
# chain: MADKNILYGPEPFYPLEDGTAGEQMFDALSRYAAIPGCIALTNAHTKENVLYEEFLKLSCRLAESFKKYGLKQNDTIAVCSENSLQFFLPVIASLYLGIIVAPVNDKYVERELIHSLGIVKPRIVFCSKNTFQKVLNVKSKLKSIETIIILDLNEDLGGYQCLNNFISQNSDSNLDVKKFKPYSFNRDDQVAAIMFSSGTTGLPKGVMLTHKNIVARFSIAKDPTFGDAINPTSAILTVIPFHWGFGMMTTLGYFTCGFRVVLMHTFEEKLFLQSLQDYKVESTLLVPTLMAFLAKSALVEKYDFPHLKEIASGGAPLSKEIGEMVKKRFKLNFVRQGYGLTEATSAVLITPKGDAKPGSTGKIVPLHAVKVVDPTTGKILGPNEPGELYFKGPMKMKGYYNNEEATKAIIDNDGWLRSGDIAYYDNDGHFYIVDRLKSLIKYKGYQVAPAEIEGILLQHPYIVDAGVTGIPDEAAGELPAAGVVVQTGKYLNEQIVQDYVASQVSTAKWLRGGVKFLDEIPKGSTGKIDRKVLRQMLEKHTNGHHHHHHHH
# B4: ATG-3553: SEQ ID NO: 18; H244W+T344A+I396K+L305P+S306P (protein)
# chain: MADKNILYGPEPFYPLEDGTAGEQMFDALSRYAAIPGCIALTNAHTKENVLYEEFLKLSCRLAESFKKYGLKQNDTIAVCSENSLQFFLPVIASLYLGIIVAPVNDKYIERELIHSLGIVKPRIVFCSKNTFQKVLNVKSKLKSIETIIILDLNEDLGGYQCLNNFISQNSDSNLDVKKFKPYSFNRDDQVASIMFSSGTTGLPKGVMLTHKNIVARFSIAKDPTFGNAINPTSAILTVIPFHWGFGMMTTLGYFTCGFRVVLMHTFEEKLFLQSLQDYKVESTLLVPTLMAFLAKSALVEKYDFPHLKEIASGGAPLSKEIGEMVKKRFKLNFVRQGYGLTEATSAVLITPKGDAKPGSTGKIVPLHAVKVVDPTTGKILGPNEPGELYFKGPMKMKGYYNNEEATKAIIDNDGWLRSGDIAYYDNDGHFYIVDRLKSLIKYKGYQVAPAEIEGILLQHPYIVDAGVTGIPDEAAGELPAAGVVVQTGKYLNEQIVQDYVASQVSTAKWLRGGVKFLDEIPKGSTGKIDRKVLRQMLEKHTNGHHHHHHHH
# Tests used:
# Type in all cases: biochemical
# [1] = Purified enzyme activity of ATG-2890 with CS0280 (FIGS. 9C-9D)
# Experimental: (§1) FIG. 9A includes a representative graph assessing the activities of luciferase enzyme variants ATG-2877, ATG-2624, and ATG-2890 in the presence of 5,5-disubstituted luciferin analog substrate. Luciferin analog compounds were diluted from 50 mM to 20 mM in reaction buffer (either Bright-Glo™ or Detection Reagent buffer). […] Reagent compositions included 50 μl Reaction Buffer+ATP, which was combined with 50 μl diluted enzyme. Plates were incubated at room temp for 30 minutes to minimize background, and 5 μl of luciferin analog substrate was added to a final concentration of 1 mM. Plates were read before and after compound addition at 3 mins and 20 mins.
# [2] = Purified enzyme activity of ATG-2890 with CS0333 (FIGS. 9C-9D)
# Experimental: as §1
# [3] = Effect of V300G, L305F, S306P on activity with CS0333 (FIG. 13); settings: 1 mM ATP; 100 nM to 1 mM substrate; Bright-Glo buffer
# Experimental: FIG. 13 includes a representative graph of the effects of amino acid substitutions V300G, L305F, and S306P on enzyme activity with the CS0333 analog. Reagent compositions included […]+1 mM ATP+100 nM to 1 mM substrate in Bright-Glo™ buffer.
# [4] = Inhibition of luciferase enzyme variants by dehydro-F-luciferin; settings: 1 μM F-luciferin; 1 mM ATP (FIG. 26)
# Experimental: Reagent compositions include 0.022 μM-366.97 μM Dehydro F-luciferin titration, 1 mM ATP, 1 μM F-luciferin, and 0.005 mg/ml enzyme. […] Both amino acid substitutions L305F and S306P conferred improved resistance to the inhibitor individually and in combination.
# [5] = Vmax and Km of Ppe variant and ATG-3707 with D/L-luciferin
# [6] = Vmax and Km of ATG-3707 with CS0333
# [7] = Luminescence of ATG-3707 variants (second round epPCR) with CS0333
# Experimental: Reagent compositions included CS0333 diluted from 20 mM to 2 mM in reaction buffer with 2 mM ATP. […] Reactions were incubated at 25° C. for 3 min, and luminescence was read and then normalized to ATG-3707 activity tested in parallel.
# [8] = Kinetic analysis of ATG-3707 variants with CS0333
# Experimental: Additionally, Table 5 (below) includes kinetic analysis of the ATG-3707 variants identified above. Reagent compositions included CS0333 serially diluted 10-fold from 1 mM to 10 fM in reaction buffer with 2 mM ATP. […] Reactions were incubated at 25° C. for 3 min, and luminescence was read and then normalized to ATG-3707 activity tested in parallel. […] Since C2157D2 was selected for improved brightness in CellTiterGlo® buffer over ATG-3707, it still had beneficial properties.
# [9] = Kinetic analysis of Ppe variant, ATG-3707, ATG-4117 with D/L-luciferin
# Experimental: (§2) Kinetic tests of these luciferase enzyme variants were also conducted. […] Reagent compositions included 0.005 mg/ml luciferase enzyme variant+1 mM ATP, and 0.1 fM to 1 mM substrate in Bright-Glo™ (BG) or Detection Reagent (DR) buffers. The composition was incubated for 3 mins and read on GloMax® Multi+platform.
# (§3) Table 8 below includes representative results of kinetic analysis of the thermostable luciferase variants of Ppe (SEQ ID NO: 1), ATG-3707, and ATG-4117. The Ppe variant (SEQ ID NO: 1) was tested with D/L-luciferin, and ATG-3707, and ATG-4117 were tested with CS0280 and CS0333.
# [10] = Kinetic analysis of ATG-3707, ATG-4117 with CS0280
# Experimental: as §2, §3
# [11] = Kinetic analysis of ATG-3707, ATG-4117 with CS0333
# Experimental: as §2, §3
# [12] = Activity and kinetics of ATG-3707 with CS0333 (FIGS. 19B-19D)
# Experimental: Reagent compositions included 0.005 mg/ml enzyme in 1×TBS+0.5% Prionex, 1 mM substrate in buffer, and 1 mM ATP.
molecule,measurement,setting,value
B1,increase in activity with CS0280 compared to Ppe variant (SEQ ID NO: 1),[1]; Bright-Glo Buffer,120 fold
same,increase in activity with CS0280 compared to Ppe variant (SEQ ID NO: 1),[1]; Detection Buffer,6 fold
same,increase in activity with CS0333 compared to Ppe variant (SEQ ID NO: 1),[2]; Bright-Glo Buffer,"1,470 fold"
same,increase in activity with CS0333 compared to Ppe variant (SEQ ID NO: 1),[2]; Detection Buffer,"3,050 fold"
B2,activity with CS0333 relative to Ppe variant (SEQ ID NO: 1),[3],improved activity
same,resistance to inhibition by dehydro F-luciferin,[4],conferred resistance to inhibition by dehydro F-luciferin
B3,Km,[5]; BrightGlo Buffer,0.03 µM
same,Vmax (RLU),[5]; BrightGlo Buffer,"2,033,235 RLU"
same,Km,[5]; CellTiterGlo buffer,91.7 µM
same,Vmax (RLU),[5]; CellTiterGlo buffer,"4,840,502 RLU"
same,Km,[5]; Detection Reagent Buffer,19.4 µM
same,Vmax (RLU),[5]; Detection Reagent Buffer,"4,499,483 RLU"
same,Km,[6]; BrightGlo Buffer,0.539 µM
same,Vmax (RLU),[6]; BrightGlo Buffer,"3,724,104 RLU"
same,Km,[6]; Detection Reagent Buffer,4.82 µM
same,Vmax (RLU),[6]; Detection Reagent Buffer,"5,458,906 RLU"
same,Luminescence (RLU) BrightGlo,"[7]; BrightGlo buffer, 25° C., 3 min",3887670 RLU
same,Normalized Luminescence BrightGlo,"[7]; BrightGlo buffer, normalized to ATG-3707",1.00
same,Luminescence (RLU) CellTiterGlo,"[7]; CellTiterGlo buffer, 25° C., 3 min",644571 RLU
same,Normalized Luminescence CellTiterGlo,"[7]; CellTiterGlo buffer, normalized to ATG-3707",1.00
same,Luminescence (RLU) Detection Reagent,"[7]; Detection Reagent buffer, 25° C., 3 min",5157310 RLU
same,Normalized Luminescence Detection Reagent,"[7]; Detection Reagent buffer, normalized to ATG-3707",1.00
same,Km,[8]; BrightGlo,6.25 µM
same,Vmax (RLU),[8]; BrightGlo,"4,240,329 RLU"
same,Km,[8]; Detection Reagent,113 µM
same,Vmax (RLU),[8]; Detection Reagent,"3,695,670 RLU"
same,Km,[9]; BrightGlo,0.0272 µM
same,Vmax (RLU),[9]; BrightGlo,"2,596,835 RLU"
same,Km,[9]; Detection Reagent,1.18 µM
same,Vmax (RLU),[9]; Detection Reagent,"6,820,106 RLU"
same,Km,[10]; BrightGlo,4.53 µM
same,Vmax (RLU),[10]; BrightGlo,"5,791,823 RLU"
same,Km,[10]; Detection Reagent,93.5 µM
same,Vmax (RLU),[10]; Detection Reagent,"4,706,312 RLU"
same,Km,[11]; BrightGlo,3.61 µM
same,Vmax (RLU),[11]; BrightGlo,"828,567 RLU"
same,Km,[11]; Detection Reagent,148 µM
same,Vmax (RLU),[11]; Detection Reagent,"42,242 RLU"
same,activity with CS0333 comparable to that of Ppe variant with luciferin,[12]; Bright-Glo and Detection Reagent buffers,≤ 10 ×
same,loss of performance with D/L-luciferin as compared to CS0333,[12]; dimmer,about 1 log
B4,activity with CS0333 relative to Ppe variant (SEQ ID NO: 1),[3],improved activity
same,resistance to inhibition by dehydro F-luciferin,[4],conferred resistance to inhibition by dehydro F-luciferin
